Laboratory results reported in patent US20220047716A1 (SUTRO BIOPHARMA, published 2022).

B1: SRP1848-F04 (antibody, V domains shown)
VH: EVQLVESGGGLVQPGGSLRLSCAASGFNISNYSIHWVRQAPGKGLEWVGEIYPIDGITDYADSVKGRFTISADTSKNTAYLQMNSLRAEDTAVYYCARGSWFWRSGYGYYLDYWGQGTLVTVSS
VL: not shown
B2: SRP1848-A09 (antibody, V domains shown)
VH: EVQLVESGGGLVQPGGSLRLSCAASGFNIRKQSIHWVRQAPGKGLEWVGSIFPNDGTTDYADSVKGRFTISADTSKNTAYLQVNSLRAEDTAVYYCARGSWFWRSGYGYFLEYWGQGTLVTVSS
VL: not shown
B3: SRP1848-A08 (antibody, V domains shown)
VH: EVQLVESGGGLVQPGGSLRLSCAASGSNIRKHSIHWVRQAPGKGLEWVGSIYPNDGTTDYADSVKGRFTISADTSKNTAYLQMNSLRAEDTAVYYCARGSWFWRAGYGYYLDYWGQGTLVTVSS
VL: not shown
B4: SRP1848-B01 (antibody, V domains shown)
VH: EVQLVESGGGLVQPGGSLRLSCAASGFNIRNYSIHWVRQAPGKGLEWVGEIYPVDGITDYADSVKGRFTISADTSKNTAYLQMNSLRAEDTAVYYCARGFWSWPSGYSYFLDYWGQGTLVTVSS
VL: not shown
B5: SRP1848-A04 (antibody, V domains shown)
VH: EVQLVESGGGLVQPGGSLRLSCAASGFNIDQSSIHWVRQAPGKGLEWVGVIYPVDGTTDYADSVKGRFTISADTSKNTAYLQMNSLRAEDTAVYYCARGAWSWRSGYGYYIDYWGQGTLVTVSS
VL: not shown
B6: SRP1848-A07 (antibody, V domains shown)
VH: EVQLVESGGGLVQPGGSLRLSCAASGFNIGYHSIHWVRQAPGKGLEWVGEIFPVDGTTDYADSVKGRFTISADTSKNTAYLHMNSLRAEDTAVYYCARGFWAWRSGYGYYLDYWGQGTLVTVSS
VL: not shown
B7: SRP1848-A10 (antibody, V domains shown)
VH: EVQLVESGGGLVQPGGSLRLSCAASGFNIRKYSIHWARQAPGKGLEWVGDIFPIDDITDYADSVKGRFTISADTSKNTAYLQMNSLRAEDTAVYYCARGSWSWPSGHSYYLDYWGQGTLVTVSS
VL: not shown
B8: SRP1848-A06 (antibody, V domains shown)
VH: EVQLVESGGGLVQPGGSLRLSCAASGFNIGNSYIHWVRQAPGKGLEWVGGITPIDGNTDYADSVKGRFTISADTSKNTAYLQMNSLRAEDTAVYYCARGAWSWRSGYGYYIDYWGQGTLVTVSS
VL: not shown
B9: SRP1848-A01 (antibody, V domains shown)
VH: EVQLVESGGGLVQPGGSLRLSCAASGFNITRYSIHWVRQAPGKGLEWVAGILPESGGTSYADSVKGRFTISADTSKNTAYLQMNSLRAEDTAVYYCARHIYPWDWFSNYVLDYWGQGTLVTVSS
VL: not shown

Target: human folate receptor alpha (hFOLR1) (human, UniProt P15328 25-234)
Sequence (P15328 25-234 limits assumed): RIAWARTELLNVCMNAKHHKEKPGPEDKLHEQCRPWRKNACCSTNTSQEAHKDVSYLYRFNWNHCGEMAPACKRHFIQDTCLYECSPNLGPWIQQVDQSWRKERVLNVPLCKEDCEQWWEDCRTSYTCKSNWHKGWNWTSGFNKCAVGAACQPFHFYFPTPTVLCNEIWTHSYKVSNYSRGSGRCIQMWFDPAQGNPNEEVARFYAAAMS
Test: cell-based or functional assay

Binder | Igrov 2° antibody cell killing EC50 [nM] | Igrov 2° antibody cell killing Span [%] | KB 2° antibody cell killing EC50 [nM] | KB 2° antibody cell killing Span [%]
B1 | 0.015 | 73 | 0.096 | 93
B2 | 0.026 | 71 | – | 93
B3 | 0.013 | 65 | 0.039 | 93
B4 | 0.031 | 82 | 0.064 | 95
B5 | 0.015 | 64 | 0.052 | 92
B6 | 0.029 | 68 | 0.062 | 95
B7 | 0.027 | 75 | 0.033 | 96
B8 | – | 72 | 0.046 | 93
B9 | 0.015 | 71 | 0.064 | 94
